PMC12265263, “H2A.X N-terminal acetylation is a newly identified NAA40-mediated modification that is responsive to UV irradiation” (Epigenetics & Chromatin, 2025)

Legend:
human NAA40 E139Q = assay: Fluorescence-based in vitro Nt-acetylation assay, N-terminal 17-mer peptides, catalytically inactive NAA40 E139Q; format: biochemical; settings: 17-mer peptide 15 μM, 10 μM acetyl-CoA, 0.1 μM hNAA40 E139Q, 25 mM HEPES pH 7.5, 5 min, triplicate, repeated two times, Fig. 1E
Protocol: (§1) hNAA40 (NCBI: NM_024771.4) WT and E139Q were cloned in pGEX-5 × 1 vector. The plasmids were transformed in BL21 (DE3) codon plus RIL pACYC E. coli cells, generously provided by Till Bartke (Institute of Functional Epigenetics, Helmholtz Munich). The transformed bacteria were grown in 40 mL Lysogeny Broth (LB) medium complemented with 100 μg/mL Ampicillin (Sigma A9518) and 25 μg/mL Chloramphenicol (Sigma C0378-5G) for 16 h at 37 °C. Final culture volume was adjusted to 400 mL with LB and the growth was resumed for 2 h. Protein expression was initiated by adding 0.1 mM isopropyl β-D-1-thiogalactopyranoside (IPTG) (Thermo Fisher Scientific 15529019) and incubating further for 4 h at 37 °C. Bacteria were pelleted and resuspended in ice cold PBS/1% Triton-X100 supplemented with protease inhibitors. Cells were lysed by small probe sonication (amplitude 30%, 3 × 45 s on ice). Lysate bacteria were pelleted, and the supernatant was incubated with Glutathione agarose beads (Cytiva 17075601) for 1 h. Then, washing steps were made with ice cold PBS/1% Triton-X100 and ice-cold PBS. The beads with the recombinant GST-NAA40 WT or E139Q were stored at − 20 °C in 80% PBS/20% glycerol. To obtain the GST tagged hNAA40, the buffer 50 mM Tris HCL pH 8, 20 mM reduced Glutathione-20% glycerol was used to elute the GST-NAA40. To obtain the untagged version of hNAA40, hNAA40 was enzymatically cut by Factor Xa (NEB P8010S) from the beads and was dialyzed in 50 mM Tris–HCL pH 7.5, 100 mM NaCl, 25% Glycerol. The recombinant proteins were confirmed by SDS-PAGE and the concentrations were determined using the BIO-RAD protein assay dye reagent (BIO-RAD 5000006) and Nanodrop 1000.
An adaptation of the previous described fluorescence assay was used to study the kinetics of hNAA40 with the histone substrates H2A.X, H2A, and H4. […] The fluorescence was monitored with Tecan Spark multimode reader with excitation 410 ± 20 nm and emission 475 ± 20 nm, and the duration of the reaction was 5 min. […]

human NAA40 WT = target: T1, human NAA40 WT (Homo sapiens, UniProt Q86UY6); assay: Fluorescence-based in vitro Nt-acetylation assay, N-terminal 17-mer peptides, wild-type NAA40; format: biochemical; settings: for Nt-acetylation by recombinant wild type NAA40: 17-mer peptide 15 μM, 0.1 μM hNAA40, 15 μM Thioglo4, 25 mM HEPES pH 7.5, 150 mM NaCl, 0.01% Triton X100, 5 min, fluorescence ex 410/em 475 nm, ΔRFU/min, triplicate, repeated two times, Fig. 1E
T1 construct: GST (N); made in house; host or cells: E. coli BL21 (DE3) codon plus RIL
Protocol: as §1
An adaptation of the previous described fluorescence assay was used to study the kinetics of hNAA40 with the histone substrates H2A.X, H2A, and H4. Specifically, the full-length histone proteins H2A.X (TEBU BIO 23615-0307), H2A, H4, and H2B, and 17-mer peptides corresponding to the N-terminal end of H4, H2A.X, H2A.J, SMARCD2 were tested with WT or E139Q hNAA40. The peptides used in this study were synthesized by BIOSYNTAN GmbH, with > 95% purity. Final substrate concentration was 15μM for the rate comparison between WT and E139Q hNAA40 (ΔRFU/min), and for the Km determination the concentration ranged from 0.1 μM to 25 μM (1:2 dilutions). The reactions were in triplicate, repeated two times and contained 15 μM Thioglo4 (Merck 595504), 10 μM Acetyl coenzyme A lithium salt (Santa Cruz sc-214465), 25 mM HEPES pH 7.5, 150 mM NaCl, 0.01% Triton X100), 0.1μM hNAA40 in a final volume of 40 μl. The reaction was initiated with the addition of the substrate. The fluorescence was monitored with Tecan Spark multimode reader with excitation 410 ± 20 nm and emission 475 ± 20 nm, and the duration of the reaction was 5 min. We generated the standard curve y = 685.2*X-92.53 using 0–10 μM 1:2 dilutions of Coenzyme A sodium salt hydrate (Merck C13144) and 25 mM HEPES pH 7.5, 150 mM NaCl, 0.01% Triton X100. GraphPad Prism 8 was used for the enzyme kinetics analyses.

Substance | Nt-acetylation by catalytically inactive NAA40 (E139Q) (human NAA40 E139Q) | Nt-acetylation by recombinant wild type NAA40 (human NAA40 WT; 10 μM acetyl-CoA) | Michaelis constant (Km), stated as affinity (inverse measure) (human NAA40 WT; 17-mer peptides 0.1 μM to 25 μM (1:2 dilutions), 10 μM acetyl-CoA, 0.1 μM hNAA40, pH 7.5, Fig. 1F) | catalytic efficiency (kcat/Km) (human NAA40 WT; 17-mer peptides, Fig. 1H)
H2A.J peptide: 17 amino acid long peptide corresponding to the N-terminal end of H2A.J (MSGRGKQGGKVRAKAKS; UniProt Q9BTM1 1-17, looked up, fragment) | not the catalytically inactive human NAA40 | Nt-acetylated by the wild-type |  | 
H2A.X peptide: 17 amino acid long peptide corresponding to the N-terminal end of H2A.X (SGRGKTGGKARAKAKSR; UniProt P16104 2-18, looked up, fragment) | not the catalytically inactive human NAA40 | Nt-acetylated by the wild-type |  | 
SMARCD2 peptide: 17 amino acid long peptide corresponding to the N-terminal end of SMARCD2 (MSGRGAGGFPLPPLSPG; UniProt Q92925 1-17, looked up, fragment) | not the catalytically inactive human NAA40 | Nt-acetylated by the wild-type | significantly lower | significantly lower than histones
